Reference: IntAct's records for PubMed 20360680
Residue numbers refer to the chain shown, from its start.

B1: BICD family-like cargo adapter 1 (Mus musculus), A0JNT9 (parent)
chain: MSAFCLGLAGRASAPAEPDSACCMELPAGAGDAVRSPATAAALVSFPGGPGELELALEEELALLAAGERSSEPGEHPQAEPESPVEGHGPPLPPPPTQDPELLSVIRQKEKDLVLAARLGKALLERNQDMSRQYEQMHKELTDKLEHLEQEKHELRRRFENREGEWEGRVSELETDVKQLQDELERQQLHLREADREKTRAVQELSEQNQRLLDQLSRASEVERQLSMQVHALKEDFREKNSSTNQHIIRLESLQAEIKMLSDRKRELEHRLSATLEENDLLQGTVEELQDRVLILERQGHDKDLQLHQSQLELQEVRLSYRQLQGKVEELTEERSLQSSAATSTSLLSEIEQSMEAEELEQEREQLRLQLWEAYCQVRYLCSHLRGNDSADSAVSTDSSMDESSETSSAKDVPAGSLRTALNDLKRLIQSIVDGVEPTVTLLSVEMTALKEERDRLRVTSEDKEPKEQLQKAIRDRDEAIAKKNAVELELAKCKMDMMSLNSQLLDAIQQKLNLSQQLEAWQDDMHRVIDRQLMDTHLKEQSRPAAAAFPRGHGVGRGQEPSTADGKRLFSFFRKI
B2: Protein bicaudal D homolog 2 (Mus musculus), Q921C5 (parent)
chain: MSAPSEEEEYARLVMEAQPEWLRAEVKRLSHELAETTREKIQAAEYGLAVLEEKHQLKLQFEELEVDYEAIRSEMEQLKEAFGQAHTNHKKVAADGESREESLIQESASKEQYYVRKVLELQTELKQLRNVLTNTQSENERLTSVAQELKEINQNVEIQRGRLRDDIKEYKFREARLLQDYSELEEENISLQKQVSVLRQNQVEFEGLKHEIKRLEEETEYLNSQLEDAIRLKEISERQLEEALETLKTEREQKNNLRKELSHYMSINDSFYTSHLQVSLDGLKFSDDTVTAEPNNDAEALVNGFEHSGLVKSSLDNKTSTPRKDGLAPPSPSLVSDLLSELHISEIQKLKQQLVQMEREKVGLLATLQDTQKQLEQARGTLSEQHEKVNRLTENLSALRRLQAGKERQTSLDNEKDRDSHEDGDYYEVDINGPEILACKYHVAVAEAGELREQLKALRSTHEAREAQHAEEKGRYEAEGQALTEKISLLEKASHQDRELLAHLEKELKKVSDVAGETQGSLNVAQDELVTFSEELANLYHHVCMCNNETPNRVMLDYYREGQGKAGRTSPEGRGRRSPVLLPKGLLATEVGRADGGTGDNSPSPSSSLPSPLSDPRREPMNIYNLIAIIRDQIKHLQAAVDRTTELSRQRIASQELGPAVDKDKEALMEEILKLKSLLSTKREQITTLRTVLKANKQTAEVALANLKSKYENEKAMVTETMMKLRNELKALKEDAATFSSLRAMFATRCDEYITQLDEMQRQLAAAEDEKKTLNSLLRMAIQQKLALTQRLELLELDHEQTRRGRSKAASKAKPASPSL
B3: Ras-related protein Rab-6A (Homo sapiens), P20340 (parent)
chain: MSTGGDFGNPLRKFKLVFLGEQSVGKTSLITRFMYDSFDNTYQATIGIDFLSKTMYLEDRTVRLQLWDTAGQERFRSLIPSYIRDSTVAVVVYDITNVNSFQQTTKWIDDVRTERGSDVIIMLVGNKTDLADKRQVSIEEGERKAKELNVMFIETSAKAGYNVKQLFRRVAAALPGMESTQDRSREDMIDIKLEKPQEQPVSEGGCSC
partner: B1 chain
B4: Ras-related protein Rab-6A (Mus musculus), P35279 (parent)
chain: B3 chain with T3A, S202N
partner: B1 chain
B5: Ras-related protein Rab-6A (Mus musculus), P35279 (parent)
chain: B3 chain with T3A, S202N

Variants of: B1
Details: with rab6a_mouse Rab6a
Target sequence in this assay (P35279 whole entry): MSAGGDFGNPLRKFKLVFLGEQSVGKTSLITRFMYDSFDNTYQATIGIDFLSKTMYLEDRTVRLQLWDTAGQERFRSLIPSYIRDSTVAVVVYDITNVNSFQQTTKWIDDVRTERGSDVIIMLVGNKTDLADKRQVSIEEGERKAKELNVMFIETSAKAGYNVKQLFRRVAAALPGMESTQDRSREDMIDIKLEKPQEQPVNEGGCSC

Variant	effect of a mutation on the interaction
K512M	disrupting interaction

Variants of: B1
Details: with rab6b_mouse Rab6b

Variant	effect of a mutation on the interaction
K512M	disrupting interaction

Variants of: B2
Details: with rab6a_mouse Rab6a
Target sequence in this assay (P35279 whole entry): as above

Variant	effect of a mutation on the interaction
K785M	disrupting interaction

Variants of: B3
Details: with bicl1_mouse Bicdl1, A0JNT9

Variant	effect of a mutation on the interaction
T27N	disrupting interaction

Variants of: B4
Details: with bicl1_mouse Bicdl1, A0JNT9

Variant	effect of a mutation on the interaction
Q72R	increasing interaction

Variants of: B5
Details: with bicd2_mouse Bicd2, Q921C5

Variant	effect of a mutation on the interaction
T27N	disrupting interaction
